Read-outs that look alike come from different tables or passages of the source.
What was measured:
[1] = target: T1, TDP43 RRM1 (UniProt Q13148 101-192); assay: CG-MALS
[2] = target: T1, TDP43 RRM1; assay: CG-MALS; remark: listed apart in the source
[3] = target: T2, CELF1 RRM1-2 (UniProt Q92879 1-187); assay: CG-MALS
[4] = target: T2, CELF1 RRM1-2; assay: EMSA

T2 sequence (Q92879 1-187): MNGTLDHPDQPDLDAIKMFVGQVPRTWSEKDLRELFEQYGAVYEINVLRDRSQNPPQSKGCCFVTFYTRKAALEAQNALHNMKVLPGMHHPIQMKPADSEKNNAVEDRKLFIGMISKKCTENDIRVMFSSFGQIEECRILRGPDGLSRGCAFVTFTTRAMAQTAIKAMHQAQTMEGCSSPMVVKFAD
T1 sequence (Q13148 101-192): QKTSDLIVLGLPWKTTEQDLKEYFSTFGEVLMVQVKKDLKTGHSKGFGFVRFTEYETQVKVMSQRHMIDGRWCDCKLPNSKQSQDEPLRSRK

Binder: TGTGTGTGTGTG (ssDNA) [(TG)6 ssDNA]
- Kd [1]: 10400 ± 3200 nM

Binder: GTGTGTGTGTGTGTGTGTGTGTGT (ssDNA) [(GT)12 ssDNA]
- Kd [2]: 1340 ± 120 nM

Binder: GUGUGUGUGUGUGUGUGUGUGUGUGUGUGUGUGUGUGUGUGUGU (ssRNA) [(GU)22 ssRNA]
- Kd [3]: 390 ± 30 nM

Binder: UGUUUGUUUGUUUGUU (ssRNA) [(UGUU)4 ssRNA]
- binding result [4]: binds

From article PMC11447847
